Experiments:
NSF T461E mutant = NSF T461E mutant (Chinese hamster, UniProt P18708 1-744, T461E); assay: far-Western, overlay or dot blot
NSF S460E mutant = NSF S460E mutant (Chinese hamster, UniProt P18708 1-744, S460E); assay: far-Western, overlay or dot blot
Sequence of NSF S460E mutant (P18708 whole entry S460E): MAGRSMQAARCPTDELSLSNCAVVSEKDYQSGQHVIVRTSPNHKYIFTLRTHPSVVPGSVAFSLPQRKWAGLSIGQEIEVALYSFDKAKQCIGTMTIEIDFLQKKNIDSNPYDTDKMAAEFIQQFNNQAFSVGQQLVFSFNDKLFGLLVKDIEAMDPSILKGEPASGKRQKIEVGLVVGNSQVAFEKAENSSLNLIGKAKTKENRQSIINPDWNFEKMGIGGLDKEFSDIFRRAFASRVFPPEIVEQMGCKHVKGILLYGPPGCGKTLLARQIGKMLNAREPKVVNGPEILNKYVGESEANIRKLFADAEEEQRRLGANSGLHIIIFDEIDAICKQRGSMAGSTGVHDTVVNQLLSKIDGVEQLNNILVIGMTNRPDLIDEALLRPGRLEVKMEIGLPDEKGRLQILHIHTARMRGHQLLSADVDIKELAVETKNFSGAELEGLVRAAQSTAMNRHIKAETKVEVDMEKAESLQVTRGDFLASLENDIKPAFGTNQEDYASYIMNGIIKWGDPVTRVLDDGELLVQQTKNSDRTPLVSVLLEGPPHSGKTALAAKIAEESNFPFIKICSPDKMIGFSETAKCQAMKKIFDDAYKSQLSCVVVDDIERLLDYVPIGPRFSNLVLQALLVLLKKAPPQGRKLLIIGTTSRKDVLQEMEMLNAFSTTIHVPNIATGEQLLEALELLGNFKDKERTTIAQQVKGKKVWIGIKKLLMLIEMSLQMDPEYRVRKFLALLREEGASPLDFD

Sequence of NSF T461E mutant (P18708 whole entry T461E): as the sequence (P18708 whole entry S460E) above, with E460S, T461E counted along it

- binding result (NSF T461E mutant): binds
- binding result (NSF S460E mutant): binds
B1: human recombinant PKCε (Invitrogen) (enzyme, UniProt Q02156 1-737, looked up)
chain: MVVFNGLLKIKICEAVSLKPTAWSLRHAVGPRPQTFLLDPYIALNVDDSRIGQTATKQKTNSPAWHDEFVTDVCNGRKIELAVFHDAPIGYDDFVANCTIQFEELLQNGSRHFEDWIDLEPEGRVYVIIDLSGSSGEAPKDNEERVFRERMRPRKRQGAVRRRVHQVNGHKFMATYLRQPTYCSHCRDFIWGVIGKQGYQCQVCTCVVHKRCHELIITKCAGLKKQETPDQVGSQRFSVNMPHKFGIHNYKVPTFCDHCGSLLWGLLRQGLQCKVCKMNVHRRCETNVAPNCGVDARGIAKVLADLGVTPDKITNSGQRRKKLIAGAESPQPASGSSPSEEDRSKSAPTSPCDQEIKELENNIRKALSFDNRGEEHRAASSPDGQLMSPGENGEVRQGQAKRLGLDEFNFIKVLGKGSFGKVMLAELKGKDEVYAVKVLKKDVILQDDDVDCTMTEKRILALARKHPYLTQLYCCFQTKDRLFFVMEYVNGGDLMFQIQRSRKFDEPRSRFYAAEVTSALMFLHQHGVIYRDLKLDNILLDAEGHCKLADFGMCKEGILNGVTTTTFCGTPDYIAPEILQELEYGPSVDWWALGVLMYEMMAGQPPFEADNEDDLFESILHDDVLYPVWLSKEAVSILKAFMTKNPHKRLGCVASQNGEDAIKQHPFFKEIDWVLLEQKKIKPPFKPRIKTKRDVNNFDQDFTREEPVLTLVDEAIVKQINQEEFKGFSYFGEDLMP

Source: publication PMC2994917 (The Journal of neuroscience : the official journal of the …, 2010)
